Here are results for one molecule from patent US20140121131A1 (AFFINITY BIOSCIENCES, published 2014).

For test [1], the target named is T1, biotinylated His6-GFP (UniProt P42212 1-238 = GFP).
T1 construct: Held on streptavidin magnetic particles or Dynal beads; also called biotinylated eGFP; Biotin-labeled eGFP; not shown: His6 tag
As to the kind of experiment: phage capture on streptavidin Dynal beads labelled with biotinylated His6-GFP; fusion protein not induced; reference is Hy5 phage with wild-type gpL.

The target in test [2] is T1, biotinylated His6-GFP. As to the kind of experiment: phage capture on streptavidin Dynal beads labelled with biotinylated His6-GFP; fusion protein induced with arabinose; reference is Hy5 phage with wild-type gpL.

B1: αGFP::I27::gpL fusion protein (VHH)
chain: MGDGMQVQLVESGGALVQPGGSLRLSCAASGFPVNRYSMRWYRQAPGKEREWVAGMSSAGDRSSYEDSVKGRFTISRDDARNTVYLQMNSLKPEDTAVYYSNVNVGFEYWGQGTQVTVSSNSSSQTSLIEVEKPLYGVEVFVGETAHFEIELSEPDVHGQWKLKGQPLTASPDCEIIEDGKKHILILHNCQLGMTGEVSFQAANAKSAANLKVKELNSSSDYKDDDDKGNGTLIIPRKEAPVSGEGTVVIPQPAGDEPVIKNTFFFPDIDPKRVRERMRLEQTVAPARLREAIKSGMAETNAELYEYREQKIAAGFTRLADVPADDIDGESIKVFYYERAVCAMATASLYERYRGVDASAKGDKKADSIDSTIDELWRDMRWAVARIQGKPRCIVSQI
notes: also called Hy5 + αGFP:I27:gpL; gpL capsid fusion protein
Regarding B1, the “Enrichment (fold over Hy5)” value in the test with biotinylated His6-GFP [1] came out at 6.5 fold over Hy5; with biotinylated His6-GFP [2], 82 fold over Hy5.
